Laboratory results taken from patent US20260256927A1 (Merck Sharp & Dohme, published 2026).

T1: IL-2Rα-Fc (Acro Biosystems, catalog #ILA-H5251) (UniProt P01589 22-217, limits assumed)
T1 construct: Bought reagent; Captured on an anti-Fc chip as SPR ligand; also called CD25; not shown: Fc part of the bought fusion
T1 sequence (looked up): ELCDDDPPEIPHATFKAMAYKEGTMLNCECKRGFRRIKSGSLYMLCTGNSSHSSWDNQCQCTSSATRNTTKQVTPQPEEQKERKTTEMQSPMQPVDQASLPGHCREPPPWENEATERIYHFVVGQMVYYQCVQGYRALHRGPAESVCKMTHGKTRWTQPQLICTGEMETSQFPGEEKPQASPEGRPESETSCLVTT

T2: IL-2Rβ-Fc (Acro Biosystems, catalog #ILB-H5253) (UniProt P14784 27-239, limits assumed)
T2 construct: Bought reagent; Captured on an anti-Fc chip as SPR ligand; also called CD122; not shown: Fc part of the bought fusion
T2 sequence (looked up): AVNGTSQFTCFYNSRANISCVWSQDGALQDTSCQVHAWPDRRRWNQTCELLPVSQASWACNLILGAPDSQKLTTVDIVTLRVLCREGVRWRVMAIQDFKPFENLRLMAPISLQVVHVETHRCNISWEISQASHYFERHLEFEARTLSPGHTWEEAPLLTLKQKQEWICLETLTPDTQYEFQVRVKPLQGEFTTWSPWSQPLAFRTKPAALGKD


Columns and labels:
[1] = target: T1, IL-2Rα-Fc (Acro Biosystems, catalog …); assay: SPR (Biacore T200), kinetic; receptor-Fc captured on anti-Fc CM5 chip, IL-2 variant as analyte; conjugated to DBCO 2 x 10 kDa PEG (PEG2)
Protocol: (§1) Anti-Fc polyclonal antibodies were immobilized onto a CM5 chip (GE Life Sciences) using amine coupling chemistry (from Amine Coupling Kit, GE Life Sciences). The immobilization steps were carried out at a flow rate of 25 μL/minute in 1×HBS-EP+ buffer (GE Life Sciences; 10× Stock diluted before use). The sensor surfaces were activated for 7 minutes with a mixture of NHS (0.05 M) and EDC (0.2 M). The anti-Fc antibodies were injected over all four flow cells at a concentration of 25 μg/mL in 10 mM sodium acetate, pH 4.5, for seven minutes. Ethanolamine (1 M, pH 8.5) was injected for seven minutes to block any remaining activated groups.
(§2) Kinetic binding experiments were performed at 25° C. using 1×HBS-EP+ with 0.05% BSA buffer. IL-2Rα-Fc or IL-2Rβ-Fc (Acro Biosystems, catalog #ILA-H5251, ILB-H5253) was injected over the anti-Fc surface at concentrations of 3-10 μg/mL for 12 seconds at a flow rate of 10 μL/minute on flow cells 2, 3 and 4, followed by a buffer wash for 30 seconds at the same flow rate. Kinetic characterization of conjugated or unconjugated aldesleukin or variants was carried out in a range of concentrations from 1 nM-10 μM and one injection of no antigen. After capturing ligand (IL-2Rα-Fc or IL-2Rβ-Fc) on the anti-Fc surface, the analyte (IL-2 variant) was bound for 60 seconds, followed by a 180 second dissociation phase at a flow rate of 50 μL/min. […]

[2] = target: T2, IL-2Rβ-Fc (Acro Biosystems, catalog …); assay: SPR (Biacore T200), kinetic; receptor-Fc captured on anti-Fc CM5 chip, IL-2 variant as analyte
Protocol: as §1
Kinetic binding experiments were performed at 25° C. using 1×HBS-EP+ with 0.05% BSA buffer. IL-2Rα-Fc or IL-2Rβ-Fc (Acro Biosystems, catalog #ILA-H5251, ILB-H5253) was injected over the anti-Fc surface at concentrations of 3-10 μg/mL for 12 seconds at a flow rate of 10 μL/minute on flow cells 2, 3 and 4, followed by a buffer wash for 30 seconds at the same flow rate. Kinetic characterization of conjugated or unconjugated aldesleukin or variants was carried out in a range of concentrations from 1 nM-10 μM and one injection of no antigen. After capturing ligand (IL-2Rα-Fc or IL-2Rβ-Fc) on the anti-Fc surface, the analyte (IL-2 variant) was bound for 60 seconds, followed by a 180 second dissociation phase at a flow rate of 50 μL/min. Between each ligand capture and analyte binding cycle, regeneration was carried out using two injections of 10 mM Glycine pH 1.5 for 30 seconds at 30 μL/minute, followed by a 30 second buffer wash step.

[3] = target: T1, IL-2Rα-Fc (Acro Biosystems, catalog …); assay: SPR (Biacore T200), kinetic; receptor-Fc captured on anti-Fc CM5 chip, IL-2 variant as analyte; unconjugated (pAMF incorporated, no PEG)
Protocol: as §1, §2

Kd [1] [nM]	Kd [2] [nM]	Kd [3] [nM]	Binder
800	–	–	Ald-6HIS_K34pAMF (SP9833) conjugated to DBCO 2 x 10 kDa PEG (PEG2) (ligand, X35 = pAMF (K34) conjugated to branched 20 kDa PEG (DBCO 2 x 10 kDa PEG, PEG2), also called SP9833 PEG2 conjugated) MPTSSSTKKTQLQLEHLLLDLQMILNGINNYKNPFLTRMLTFKFYMPKKATELKHLQCLEEELKPLEEVLNLAQSKNFHLRPRDLISNINVIVLELKGSETTFMCEYADETATIVEFLNRWITFSQSIISTLTGGSHHHHHH
–	300	7	Ald-6HIS_K34pAMF (SP9833), unconjugated (ligand, X35 = pAMF (K34 in SEQ ID NO: 2/3 numbering), also called Aldesleukin-6His K34TAG p-azidomethyl-L-phenylalanine) MPTSSSTKKTQLQLEHLLLDLQMILNGINNYKNPFLTRMLTFKFYMPKKATELKHLQCLEEELKPLEEVLNLAQSKNFHLRPRDLISNINVIVLELKGSETTFMCEYADETATIVEFLNRWITFSQSIISTLTGGSHHHHHH
